Assay results from patent US20240124560A1.
Like-named read-outs stand apart in the source and are kept apart here.

What was measured:
[1] = target: MPER peptide PDT-081 (HIV-1); experiment: ELISA on MPER (654-683) peptide, antibody titrated
[2] = target: MPER peptide PDT-081 (HIV-1)
[3] = target: MPER peptide PDT-081 (HIV-1); experiment: BLI on PDT-081
[4] = target: MPER peptide PDT-081 (HIV-1); experiment: BLI (Octet RED96), Fab over biotinylated peptide on streptavidin sensors
[5] = target: MPER peptide PDT-081 (HIV-1); experiment: ELISA on PDT-081

Binder | Kd [2] | Kd [3] | koff [3] | kon [3] | EC50 [5] | Fold Increase (ELISA EC50 over H4K3) [5] | other results
PGZL1 (antibody, V domains shown) VH: EVQLVQSGGEVKRPGSSVTVSCKATGGTFSTLAFNWVRQAPGQGPEWMGGIVPLFSIVNYGQKFQGRLTIRADKSTTTVFLDLSGLTSADTATYYCAREGEGWFGKPLRAFEFWGQGTVITVSS VL: DVVMTQSPGTLSLSPGERATLSCRASQSVSGGALAWYQQKPGQAPRLLIYDTSSRPTGVPGRFSGSGSGTDFSLTISRLEPEDFAVYYCQQYGTSQSTFGQGTRLEIK | – | – | – | – | – | – | EC50 (read off the curve) [1]: 0.02 µg/mL
H4K3_RS73PE Fab (Fab, V domains shown) VH: KVQLVQSGAELKKPWSSVRVSCKASGGSFSSYAFNWVRQAPGQRLEWLGGIVPLVSSTNYAQRFRGRVTISADPETSTVYLEMTGLTSADTAVYFCAREGEGWFGRPLRAFEFWGQGTLVTVST VL: EIVLTQSPGTFALSPGERATLSCRASQSVSGGALAWYQQKAGQAPRLLIYDTSGRATGVPGRFSGSGSETDFSLTISRLEPEDFAVYYCQQYGTSQSTFGQGTRLETR | 12.8 nM | 12.8 nM | 0.00051 s⁻¹ | 39000 M⁻¹ s⁻¹ | – | – | –
H4K3_SFS28EPE Fab (Fab, V domains shown) VH: KVQLVQSGAELKKPWSSVRVSCKASGGEPESYAFNWVRQAPGQRLEWLGGIVPLVSSTNYAQRFRGRVTISADRSTSTVYLEMTGLTSADTAVYFCAREGEGWFGRPLRAFEFWGQGTLVTVST VL: EIVLTQSPGTFALSPGERATLSCRASQSVSGGALAWYQQKAGQAPRLLIYDTSGRATGVPGRFSGSGSETDFSLTISRLEPEDFAVYYCQQYGTSQSTFGQGTRLETR | 15.1 nM | 15.1 nM | 0.00054 s⁻¹ | 36000 M⁻¹ s⁻¹ | – | – | –
H4K3_5M Fab (Fab, V domains shown) VH: KVQLVQSGAELKKPWSSVRVSCKASGGEPESYAFNWVRQAPGQRLEWLGGIVPLVSSTNYAQRFRGRVTISADPETSTVYLEMTGLTSADTAVYFCAREGEGWFGRPLRAFEFWGQGTLVTVST VL: EIVLTQSPGTFALSPGERATLSCRASQSVSGGALAWYQQKAGQAPRLLIYDTSGRATGVPGRFSGSGSETDFSLTISRLEPEDFAVYYCQQYGTSQSTFGQGTRLETR | 23.4 nM | 23.4 nM | 0.00067 s⁻¹ | 29000 M⁻¹ s⁻¹ | – | – | –
PGZL1.H4K3 Fab (Fab, V domains shown) VH: KVQLVQSGAELKKPWSSVRVSCKASGGSFSSYAFNWVRQAPGQRLEWLGGIVPLVSSTNYAQRFRGRVTISADRSTSTVYLEMTGLTSADTAVYFCAREGEGWFGRPLRAFEFWGQGTLVTVST VL: EIVLTQSPGTFALSPGERATLSCRASQSVSGGALAWYQQKAGQAPRLLIYGTSGRATGVPGRFSGSGSETDFSLTISRLEPEDFAVYYCQQYGTSQSTFGQGTRLETR | – | – | 0.00051 s⁻¹ | 68000 M⁻¹ s⁻¹ | – | – | Kd [4]: 7.5 nM; off rate faster than that of PGZL1 [4]: 8%; on rate faster than that of PGZL1 [4]: 24%
PGZL1.H4K3 (antibody, V domains shown) VH: KVQLVQSGAELKKPWSSVRVSCKASGGSFSSYAFNWVRQAPGQRLEWLGGIVPLVSSTNYAQRFRGRVTISADRSTSTVYLEMTGLTSADTAVYFCAREGEGWFGRPLRAFEFWGQGTLVTVST VL: EIVLTQSPGTFALSPGERATLSCRASQSVSGGALAWYQQKAGQAPRLLIYGTSGRATGVPGRFSGSGSETDFSLTISRLEPEDFAVYYCQQYGTSQSTFGQGTRLETR | – | – | – | – | 0.039 µg/mL | – | –
H4K3_RS73PE (antibody, V domains shown) VH: KVQLVQSGAELKKPWSSVRVSCKASGGSFSSYAFNWVRQAPGQRLEWLGGIVPLVSSTNYAQRFRGRVTISADPETSTVYLEMTGLTSADTAVYFCAREGEGWFGRPLRAFEFWGQGTLVTVST VL: EIVLTQSPGTFALSPGERATLSCRASQSVSGGALAWYQQKAGQAPRLLIYDTSGRATGVPGRFSGSGSETDFSLTISRLEPEDFAVYYCQQYGTSQSTFGQGTRLETR | – | – | – | – | 0.09 µg/mL | 2.3 fold | –
H4K3_SFS28EPE (antibody, V domains shown) VH: KVQLVQSGAELKKPWSSVRVSCKASGGEPESYAFNWVRQAPGQRLEWLGGIVPLVSSTNYAQRFRGRVTISADRSTSTVYLEMTGLTSADTAVYFCAREGEGWFGRPLRAFEFWGQGTLVTVST VL: EIVLTQSPGTFALSPGERATLSCRASQSVSGGALAWYQQKAGQAPRLLIYDTSGRATGVPGRFSGSGSETDFSLTISRLEPEDFAVYYCQQYGTSQSTFGQGTRLETR | – | – | – | – | 0.076 µg/mL | 2 fold | –
H4K3_5M (antibody, V domains shown) VH: KVQLVQSGAELKKPWSSVRVSCKASGGEPESYAFNWVRQAPGQRLEWLGGIVPLVSSTNYAQRFRGRVTISADPETSTVYLEMTGLTSADTAVYFCAREGEGWFGRPLRAFEFWGQGTLVTVST VL: EIVLTQSPGTFALSPGERATLSCRASQSVSGGALAWYQQKAGQAPRLLIYDTSGRATGVPGRFSGSGSETDFSLTISRLEPEDFAVYYCQQYGTSQSTFGQGTRLETR | – | – | – | – | 0.083 µg/mL | 2.1 fold | –
PGZL1 Fab (Fab, V domains shown) VH: EVQLVQSGGEVKRPGSSVTVSCKATGGTFSTLAFNWVRQAPGQGPEWMGGIVPLFSIVNYGQKFQGRLTIRADKSTTTVFLDLSGLTSADTATYYCAREGEGWFGKPLRAFEFWGQGTVITVSS VL: DVVMTQSPGTLSLSPGERATLSCRASQSVSGGALAWYQQKPGQAPRLLIYDTSSRPTGVPGRFSGSGSGTDFSLTISRLEPEDFAVYYCQQYGTSQSTFGQGTRLEIK | – | – | – | – | – | – | Kd [4]: 9.9 nM
